The chains are these.
T1: CD30 fused to the Fc region of IgG1 (R&D Systems) (UniProt P28908 19-379)
T1 sequence (looked up): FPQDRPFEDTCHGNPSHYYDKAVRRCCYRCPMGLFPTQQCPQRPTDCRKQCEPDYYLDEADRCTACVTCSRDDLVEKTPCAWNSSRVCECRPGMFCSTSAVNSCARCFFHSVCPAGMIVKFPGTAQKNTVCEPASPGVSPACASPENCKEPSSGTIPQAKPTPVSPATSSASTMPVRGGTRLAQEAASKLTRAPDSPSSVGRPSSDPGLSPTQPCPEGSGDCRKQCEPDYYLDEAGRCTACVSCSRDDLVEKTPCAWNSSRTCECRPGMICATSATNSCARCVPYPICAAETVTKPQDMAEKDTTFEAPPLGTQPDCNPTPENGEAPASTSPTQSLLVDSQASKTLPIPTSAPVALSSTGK

T2: human CD30 (commercial, conjugated to digoxigenin) (human, UniProt P28908 19-379, limits assumed, conjugated to digoxigenin (DIG))
T2 sequence (looked up): T1 sequence (looked up)

B1: C225 L2/H5 full length antibody (antibody, IgG1, V domains shown)
VH: QVQLQQSGPGLVKPSQTLSLTCTVSGFSLTNYGVHWVRQAPGKGLEWLGVIWSGGNTDYNTPLTSRLTINKDNSKSQVVLQMNSLRAEDTAVYYCARALTYYDYEFAYWGQGTLVTVSS
VL: DILLTQSPATLSLSPGERVTLSCRASQSIGTNIHWYQQKPDQSPKLLIKYASESISGIPSRFSGSGSGTDFTLTISSLQPEDFADYYCQQNNNWPTTFGAGTKLEIK
B2: C225 L2/H8 full length antibody (antibody, IgG1, V domains shown)
VH: QVQLVESGGGLVQPGRSLRLSCAVSGFSLTNYGVHWVRQAPGKGLEWVSVIWSGGNTDYNTSVKGRFTISKDNSKSTVYLQMNSLRAEDTAVYYCARALTYYDYEFAYWGQGTLVTVSS
VL: B1 VL
B3: C225 L0/H3 full length antibody (antibody, IgG1, V domains shown)
VH: B1 VH with P62S, T64K, N70S
VL: not shown
B4: C225 L0/H5 full length antibody (antibody, IgG1, V domains shown)
VH: B1 VH
VL: not shown
B5: C225 L2/H7 full length antibody (antibody, IgG1, V domains shown)
VH: QVQLQQSGPGLVKPSQTLSLTCTVSGFSLTNYGVHWVRQPPGKGLEWIGVIWSGGNTDYNTSLKSRVTISKDNSKSQVSLKLSSVTAADTAVYYCARALTYYDYEFAYWGQGTLVTVSS
VL: B1 VL
B6: C225 L0/H6 full length antibody (antibody, IgG1, V domains shown)
VH: B1 VH with L48V, P62S, L63V, T64K, S65G, L67F, N70S, V79Y
VL: not shown
B7: C225 L2/H6 full length antibody (antibody, IgG1, V domains shown)
VH: B1 VH with L48V, P62S, L63V, T64K, S65G, L67F, N70S, V79Y
VL: B1 VL
B8: C225 L4/H3 full length antibody (antibody, IgG1, V domains shown)
VH: B1 VH with P62S, T64K, N70S
VL: DILLTQSPAFLSVTPGEKVTITCRASQSIGTNIHWYQQKPDQSPKLLIKYASESISGIPSRFSGSGSGTDFTLTINSLEAEDAATYYCQQNNNWPTTFGAGTKLEIK
B9: C225 L3/H3 full length antibody (antibody, IgG1, V domains shown)
VH: B1 VH with P62S, T64K, N70S
VL: B1 VL with A9S, T10S, L13A, P15V, E17D, L21I, S22T, P80A, F83V, D85V
B10: C225 L0/H4 full length antibody (antibody, IgG1, V domains shown)
VH: QVQLQQSGPGLVKPSQTLSLTCTVSGFSLTNYGVHWVRQAPGKGLEWLGVIWSGGNTDYNTSLKSRLTISKDNSKSQVVLTMTNMDPVDTATYYCARALTYYDYEFAYWGQGTLVTVSS
VL: not shown
B11: C225 L0/H7 full length antibody (antibody, IgG1, V domains shown)
VH: B5 VH
VL: not shown
B12: C225 L0/H8 full length antibody (antibody, IgG1, V domains shown)
VH: B2 VH
VL: not shown
B13: AC10 H3/L1 full length antibody (antibody, V domains shown)
VH: QIQLVQSGPEVKKPGASVKVSCKASGYTFTDYYITWVRQAPGQGLEWMGWIYPGSGNTKYNEKFQGRFVFSVDTSASTAYLQISSLKAEDTAVYFCANYGNYWFAYWGQGTLVTVSS
VL: DIVLTQSPATLSLSPGERATLSCRASQSVDFDGDSYMNWYQQKPGQPPKVLIYAASNLESGIPARFSGSGSGTDFTLTISSLQPEDFATYYCQQSNEDPWTFGGGTKVEIK
B14: AC10 H0/L1 full length antibody (antibody, V domains shown)
VH: QIQLQQSGPEVVKPGASVKISCKASGYTFTDYYITWVKQKPGQGLEWIGWIYPGSGNTKYNEKFKGKATLTVDTSSSTAFMQLSSLTSEDTAVYFCANYGNYWFAYWGQGTQVTVSA
VL: B13 VL
B15: AC10 H2/L2 full length antibody (antibody, V domains shown)
VH: QIQLVESGGGLVKPGGSLRLSCAASGYTFTDYYITWVRQAPGQGLEWMGWIYPGSGNTKYNEKFQGRVTMTVDTSTSTAYMELSSLRSEDTAVYFCANYGNYWFAYWGQGTLVTVSS
VL: B13 VL with A9S, T10S, L13A, P15V, E17D, A19V, L21I, S22T
B16: AC10 H2/L1 full length antibody (antibody, V domains shown)
VH: B15 VH
VL: B13 VL
B17: AC10 H0/L2 full length antibody (antibody, V domains shown)
VH: B14 VH
VL: B13 VL with A9S, T10S, L13A, P15V, E17D, A19V, L21I, S22T
B18: AC10 H3/L2 full length antibody (antibody, V domains shown)
VH: B13 VH
VL: B13 VL with A9S, T10S, L13A, P15V, E17D, A19V, L21I, S22T
B19: AC10 H2/L0 full length antibody (antibody, V domains shown)
VH: B15 VH
VL: DIVLTQSPASLAVSLGQRATISCKASQSVDFDGDSYMNWYQQKPGQPPKVLIYAASNLESGIPARFSGSGSGTDFTLNIHPVEEEDAATYYCQQSNEDPWTFGGGTKLEIK
B20: AC10 H0/L3 full length antibody (antibody, V domains shown)
VH: B14 VH
VL: B19 VL with A9D, Q17E, S22N, N78T, H80N, P81S, V82L, E84A, L108V

Residue numbers refer to the chain shown, from its start.

One experiment concerns the target EGFR extracellular domain (R&D Systems) (UniProt P00533 25-645, limits assumed). Briefly: SPR, full length antibody over EGFR chip. For orientation: SPR reads the build-up and loss of mass on a sensor chip optically.
Take B1: the binding result was “binds”.

Take B2: the binding result is given as “binds”.

Take B3: the binding result is on record as “binds”.

For B4, the binding result is on record as “binds”.

In the case of B5, the binding result is recorded as “binds”.

Turning to B6, the binding result is on record as “binds”.

Take B7: the binding result is listed as “binds”.

Turning to B8, the binding result is recorded as “binds”.

Take B9: the binding result was “binds”.

B10: the binding result is recorded as “binds”.

Take B11: the binding result is “binds”.

Consider B12, for which the binding result is recorded as “binds”.

The next experiment deals with T1, CD30 fused to the Fc region of IgG1 …. Briefly: SPR, CD30-Fc on Protein A chip.
What is called Kd is the constant that tells how readily two partners part at equilibrium. A higher Kd goes with a looser complex. Regarding B13, the “Fold KD vs WT” value was found to be 1.39 fold and the Kd turned out to be 2.44 nM.

B14: the “Fold KD vs WT” value stood at 1.03 fold and the equilibrium dissociation constant (Kd) came out at 3.29 nM.

B15: the “Fold KD vs WT” value was 0.57 fold and the Kd is 5.95 nM.

B16: the “Fold KD vs WT” value worked out at 0.36 fold and the Kd worked out at 9.49 nM.

Take B17: the “Fold KD vs WT” value was 0.97 fold and the Kd amounted to 3.48 nM.

B18: the “Fold KD vs WT” value came out at 1.19 fold and binding was characterised by a dissociation constant (Kd) of 2.86 nM.

Regarding B19, the “Fold KD vs WT” value amounted to 0.42 fold and the Kd turned out to be 8 nM.

As to B20, the “Fold KD vs WT” value came to 1.13 fold and the equilibrium dissociation constant (Kd) turned out to be 3 nM.

The target in another experiment is T2, human CD30 (commercial, conjugated to …). The experiment in a line: AlphaScreen competition vs biotin-WT AC10. A general note: Alpha assays give light when donor and acceptor beads are brought close together.
The IC50 is the concentration needed to halve the response being measured. A low value points to inhibition by little substance. As for B13, the “Fold IC50 vs WT” value is 0.52 fold and the IC50 was determined as 6.09 nM.

In the case of B14, the “Fold IC50 vs WT” value stood at 0.61 fold and the IC50 is 5.19 nM.

As for B15, the “Fold IC50 vs WT” value came out at 0.06 fold and the IC50 turned out to be 49.2 nM.

For the molecule B16, the “Fold IC50 vs WT” value was 0.06 fold and the IC50 stood at 55.1 nM.

Consider B17, for which the “Fold IC50 vs WT” value is 0.41 fold and the IC50 came out at 7.81 nM.

In the case of B18, the “Fold IC50 vs WT” value was determined as 0.48 fold and the IC50 was found to be 6.57 nM.

In the case of B19, the “Fold IC50 vs WT” value was found to be 0.16 fold and the IC50 came to 19.4 nM.

Turning to B20, the “Fold IC50 vs WT” value is 0.69 fold and the IC50 was determined as 4.61 nM.

For the origin of these results see patent US7657380.
